The values that follow come from patent publication US20230303695A1 (SHANGHAI XBH BIOTECHNOLOGY, published 2023).

Residue numbers refer to the chain shown, from its start.

One may read the EC50 as the concentration that produces a half-maximal response. Read a low EC50 as an effect from little substance. In general, Kd refers to a measure of binding affinity in units of concentration.

B1: Antibody C9 (antibody, V domains shown)
VH: EVQLVESGGGLVQPGGSLRLSCAASGFTFSRYDMSWVRQAPGKGLEWVSRIRYSGGRTGYADSVKGRFTISRDNSKNTLYLQMNSLRAEDTAVYYCARGVRYCSSPSCSRGPRYAMDVWGKGTTVTVSS
VL: DVVMTQSPATLSLSPGEGATLSCRASQSVRGYLAWYQQKPGQAPRLLIYDTFKRATGIPARFSGSGSGADFTLTISSLEPEDSAVYYCQQYFASPWTFGQGTKVEIKR
notes: also called anti-IGSF8 C9
B2: Antibody C6 (antibody, V domains shown)
VH: EVQLVESGGGLVQPGGSLRLSCAASGFTFSPYRMHWVRQAPGKGLEWVSRINPSGGRTWYADSVKGRFTISRDNSKNTLYLQMNSLRAEDTAVYYCARDATGRHYNGMDVWGQGTMVTVSS
VL: DIQMTQSPSTLSASVGDRVTITCRASQSINKWLAWYQQKPGKAPKLLIYKASTLESGVPSRFSGSGSGTDFTLTINSLQPEDFATYYCQQSHSAPWTFGQGTKVEIER
notes: also called anti-IGSF8 C6
B3: Antibody C8 (antibody, V domains shown)
VH: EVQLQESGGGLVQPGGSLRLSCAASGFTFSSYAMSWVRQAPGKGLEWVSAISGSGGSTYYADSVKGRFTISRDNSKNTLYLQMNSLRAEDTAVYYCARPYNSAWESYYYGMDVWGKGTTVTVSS
VL: DIQMTQSPSSVSASVGDRVTITCRASQGISSRLAWYQQKPGKAPKLLIYAASSLQSGVPSRFSGSGSGTDFTLTISSLQPEDFATYYCQQRHSYPITFGQGTRLEIKR
notes: also called anti-IGSF8 C8
B4: Antibody C37 (3F12) (antibody, V domains shown)
VH: EVQLVQSGGGLVKPGGSLRLSCAASGFTFSSYSMNWVRQAPGKGLEWVSSISSSSSYIYYADSVKGRFTISRDNAKNSLYLQMNSLRAEDTAVYYCAGRQYDFWSGWDWFDPWGQGTLVTVSS
VL: DIQLTQSPSSLSASVGDRVTITCRASQSISTYLNWYQQKPGKAPKLLIHDASILQSGVPSRFSGSGSGTDFTLTISSLQAEDFATYYCQQSYSTLPYTFGQGTKVEIK
notes: also called mAb-3F12(C37)
B5: Antibody C30 (B34) (antibody, V domains shown)
VH: EVQLLESGGGLVQPGGSLRLSCAASGFTFSSYAMSWVRQAPGKGLEWVSGITGSGGSTYYADSVKGRFTISRDNSKNTLYLQMNSLRAEDTAVYYCARGRQVDKWGQGTLVTVSS
VL: DIMLTQSPSSLSASVGDRVTITCRASQSIHNYLNWIQQTPGKAPKLLVFAASTLQRGVPPRYSGRGSGTEFTLTISSLQPEDFATYYCQQSYTTPLTFGGGTKVEIRR
notes: Expressed in CHO cells; also called mAb-B34 (C30)
B6: Antibody C35 (1B1) (antibody, V domains shown)
VH: EVQLLESGGGLVQPGGSLRLSCAVSGFTFNSFAMSWVRQAPGKGLEWVSAISGSGGGTYYADSVKGRFTISRDNSKNTLYLQMNSLRAEDTAVYYCAREGWEVRTPGYFDYWGQGTLVTVSS
VL: DVVMTQSPSSLSASVGDRVTITCRASHRIFSYLTWYHQKPGKAPNLLISGASSLGAGVPSRFSGSGSGTDFTLTISSLQPEDFGTYYCQQSFSDPYTFGQGTKLEIKR
notes: also called mAb-1B1 (C35)
B7: Antibody C34 (1D7) (antibody, V domains shown)
VH: EVQLLESGGGLVQPGGSLRLSCAVSGFTFNSFAMSWVRQAPGKGLEWVSAISGSGGGTYYADSVKGRFTISRDNSKNTLYLQMNSLRAEDTAIYYCAREVDGYGAFDIWGQGTMVTVSS
VL: DIQMTQSPSSLSASVGNRVTITCRASQTIRNYLNWYQQKPGEAPKVLIYGASTLQSGVPSRFSASGSGTDFTLTISSLQPDDFATYHCQQTFSDPYTFGQGTKVEIK
notes: also called mAb-1D7 (C34)
B8: Antibody C39 (8G4) (antibody, V domains shown)
VH: B5 VH with G99S, Q101N, V102L, K104S
VL: DIQLTQSPSSLSASVGDRVTITCRASQSIHNYLNWIQQTPGKAPKLLVFAASTLQRGVPPRYSGRGSGTEFTLTISSLQPEDFATYYCQQSYTTPLTFGGGTKVEIR
notes: also called mab-8G4 (C39)
B9: KIR3DL1 D1 construct on CT26 cells (receptor, human, UniProt P43629 22-118, looked up)
chain: HMGGQDKPFLSAWPSAVVPRGGHVTLRCHYRHRFNNFMLYKEDRIHIPIFHGRIFQESFNMSPVTTAHAGNYTCRGSHPHSPTGWSAPSNPVVIMVT
notes: domain: D1; also called D1/D3 construct
B10: KIR2DL2 expressed on CT26 cells (receptor, human, UniProt P43627 22-348, looked up)
chain: HEGVHRKPSLLAHPGRLVKSEETVILQCWSDVRFEHFLLHREGKFKDTLHLIGEHHDGVSKANFSIGPMMQDLAGTYRCYGSVTHSPYQLSAPSDPLDIVITGLYEKPSLSAQPGPTVLAGESVTLSCSSRSSYDMYHLSREGEAHECRFSAGPKVNGTFQADFPLGPATHGGTYRCFGSFRDSPYEWSNSSDPLLVSVIGNPSNSWPSPTEPSSKTGNPRHLHILIGTSVVIILFILLFFLLHRWCSNKKNAAVMDQESAGNRTANSEDSDEQDPQEVTYTQLNHCVFTQRKITRPSQRPKTPPTDIIVYAELPNAESRSKVVSCP
notes: whole, on cells
B11: KIR2DL5A expressed on CT26 cells (receptor, human, UniProt Q8N109 22-375, looked up)
chain: HEGGQDKPLLSAWPSAVVPRGGHVTLLCRSRLGFTIFSLYKEDGVPVPELYNKIFWKSILMGPVTPAHAGTYRCRGSHPRSPIEWSAPSNPLVIVVTGLFGKPSLSAQPGPTVRTGENVTLSCSSRSSFDMYHLSREGRAHEPRLPAVPSVNGTFQADFPLGPATHGGTYTCFGSLHDSPYEWSDPSDPLLVSVTGNSSSSSSSPTEPSSKTGIRRHLHILIGTSVAIILFIILFFFLLHCCCSNKKNAAVMDQEPAGDRTVNREDSDDQDPQEVTYAQLDHCVFTQTKITSPSQRPKTPPTDTTMYMELPNAKPRSLSPAHKHHSQALRGSSRETTALSQNRVASSHVPAAGI
notes: whole, on cells
B12: KIR2DL5B expressed on CT26 cells (receptor, human, UniProt Q8NHK3 22-375, looked up)
chain: B11 chain with N152D, G174S
notes: whole, on cells

For the first experiment, the target named is T1, IGSF8 extracellular domain (ED) (Homo sapiens (Human), UniProt Q969P0 28-579).
T1 construct: also called IGSF8 ECD
T1 sequence: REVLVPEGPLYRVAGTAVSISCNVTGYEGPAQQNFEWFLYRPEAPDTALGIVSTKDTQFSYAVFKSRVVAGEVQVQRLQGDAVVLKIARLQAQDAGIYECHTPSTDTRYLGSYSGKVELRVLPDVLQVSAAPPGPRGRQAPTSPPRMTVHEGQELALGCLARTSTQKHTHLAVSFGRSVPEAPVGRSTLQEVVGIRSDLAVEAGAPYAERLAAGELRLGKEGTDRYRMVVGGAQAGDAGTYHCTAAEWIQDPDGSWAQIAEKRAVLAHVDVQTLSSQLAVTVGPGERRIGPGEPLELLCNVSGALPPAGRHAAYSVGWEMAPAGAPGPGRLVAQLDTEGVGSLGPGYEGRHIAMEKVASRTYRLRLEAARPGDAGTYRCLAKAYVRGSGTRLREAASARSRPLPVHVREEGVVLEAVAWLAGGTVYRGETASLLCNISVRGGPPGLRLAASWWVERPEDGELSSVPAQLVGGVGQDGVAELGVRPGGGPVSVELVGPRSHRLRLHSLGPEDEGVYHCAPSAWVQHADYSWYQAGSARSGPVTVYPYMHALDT
The experiment in a line: ELISA on IGSF8 extracellular domain. In general terms: In an ELISA, binding on a coated surface is turned into a signal by an enzyme label.
Turning to B1, the binding result is reported as “binds”. Same read-out and setting: the result for B2 reads “binds”; that for B3, “binds”.

Another experiment has as its target T2, human IGSF8 expressed on the cell surface (human, UniProt Q969P0 28-613).
T2 construct: whole, on cells; also called human IGSF8 on CT26 cells; IGSF8 on MC38 cells
T2 sequence (looked up): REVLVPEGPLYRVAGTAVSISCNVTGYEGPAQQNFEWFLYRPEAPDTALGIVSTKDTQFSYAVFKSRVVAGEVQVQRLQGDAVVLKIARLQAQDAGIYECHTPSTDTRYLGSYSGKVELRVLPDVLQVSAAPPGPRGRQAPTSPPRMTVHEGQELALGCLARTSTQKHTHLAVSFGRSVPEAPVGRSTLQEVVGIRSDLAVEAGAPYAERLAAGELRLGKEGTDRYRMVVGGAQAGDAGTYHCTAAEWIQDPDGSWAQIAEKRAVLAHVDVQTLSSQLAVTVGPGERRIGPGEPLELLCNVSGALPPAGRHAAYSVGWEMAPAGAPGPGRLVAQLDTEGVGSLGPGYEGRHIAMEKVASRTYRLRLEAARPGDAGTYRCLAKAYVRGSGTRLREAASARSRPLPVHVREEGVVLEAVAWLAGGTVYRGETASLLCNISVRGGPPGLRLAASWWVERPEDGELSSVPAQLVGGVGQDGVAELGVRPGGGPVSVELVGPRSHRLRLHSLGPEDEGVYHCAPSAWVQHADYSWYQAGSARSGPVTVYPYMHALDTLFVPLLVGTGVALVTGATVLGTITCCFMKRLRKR
The experiment in a line: FACS on CT26 cells with forced surface expression of human IGSF8. As to the method: For antibody binding assays based on cell-expressed antigens, 100,000 cells overexpressing the antigen (either the full-length IGSF8 or the D1 domain thereof) were washed with PBS buffer containing 2% FBS, and then incubated with 100 μL of antibodies or IgG of different concentrations for 30 minutes on ice. Cells were then washed twice with wash buffer, and incubated with 100 μL of 1:100 anti-human Fc-PE antibody for 15 minutes on ice. Cells were washed twice with wash buffer and analyzed on a FACS analyzer (CytoFlex, Beckman).
As to B4, the EC50 amounted to 5.93 nM. On the same count and under the same terms, the result for B5 reads 7.88 nM.

The target of the next experiment is T3, D1 domain of IGSF8 (recombinant protein) (human, UniProt Q969P0 28-149, limits assumed).
T3 construct: domain: D1 (Ig V-set domain); also called Ig V-set domain of IGSF8
T3 sequence (looked up): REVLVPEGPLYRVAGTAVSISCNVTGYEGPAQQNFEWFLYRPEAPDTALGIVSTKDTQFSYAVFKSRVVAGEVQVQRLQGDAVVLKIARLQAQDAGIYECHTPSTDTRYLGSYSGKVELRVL
The experiment in a line: SPR, Biacore T100.
For B4, the Kd is under 50 nM. On the same count and under the same terms, with B6 the figure was under 50 nM; with B7, under 50 nM; with B5, under 50 nM. The same measure, in the same setting: with B8 the figure was under 50 nM.

Another experiment concerns the target T4, full-length IGSF8 (recombinant antigen of the SPR screen; IGSF8 target antigen of the phage panning) (human, UniProt Q969P0 28-579, limits assumed).
T4 sequence (looked up): T1 sequence
The experiment in a line: SPR, Biacore T100.
As to B4, the Kd turned out to be 22.5 nM. On the same count and under the same terms, the result for B6 reads 2.06 nM; that for B7, 2.12 nM.

On to B5, for which the Kd was 13.8 nM.

The target in another experiment is T5, recombinant human IGSF8 extracellular domain tagged by a human Fc region (IGSF8-hFc) (human, UniProt Q969P0 28-579, biotin label in Examples 17, 18 and 28 (site not given)).
T5 construct: also called IGSF8-Fc fusion protein; IGSF8-hFc-biotin; not shown: human Fc region
T5 sequence: T1 sequence
The experiment in a line: FACS, biotin-labelled IGSF8 on CT26 cells expressing KIR3DL1/2 constructs, MFI normalized to Thy1.1. (In general: A flow cytometer gives signals particle by particle.)
Take B9: the binding result is reported as “no binding (tested: not shown on the sheet)”.

For the next experiment, the target named is T5, recombinant human IGSF8 extracellular …. The experiment in a line: FACS, biotin-labelled IGSF8-hFc on CT26 cells expressing the KIR, MFI normalized to Thy1.1. Here is the method: For this experiment, different human KIR receptors (KIR2DL1, KIR2DL2, KIR2DL3, KIR2DL4, KIR2DL5A, KIR2DL5B, KIR3DL1, KIR3DL2, KIR3DL3) were first cloned into a proprietary lentiviral vector containing a thy1.1 tag (FIG. 17A). Then mouse CT26 cells, were transducted by these lentiviral constructs, and IGSF8 binding was tested with biotin-labelled recombinant IGSF8 hFc fusion protein. The mean fluorescence intensity (MFI) of IGSF8 binding to different CT26 cells were normalized by the expression of different KIRs on CT26 cells using an anti-thy1.1 mAb (Biolegend) via flow cytometry.
KLRC1 also contains a ITIM motif in its intracellular domain, and was known to be a inhibitory receptor of NK or CD8⁺ T cells as part of a heterodimer with KLRD1 on the cell surface. […] Specifically, 100,000 CT26 cells overexpressing the antigens (KIRs or KLRs) were washed with PBS buffer containing 2% FBS, and incubated with 100 μL IGSF8 recombinant proteins or antibodies (5 μg/mL) for 30 minutes on ice. Cells were then washed twice with wash buffer, and incubated with 100 μL of 1:100 anti-human Fc-PE antibody for 15 minutes on ice. Cells were washed twice with wash buffer and analyzed on a FACS analyzer (CytoFlex, Beckman). In these experiments, the mean fluorescence intensity (MFI) of IGSF8 binding to different CT26 cells were normalized by the expression of different KLRs on CT26 cells using an anti-thy1.1 mAb via flow cytometry.
As for B10, the binding result is “no binding”.

Regarding B11, the binding result was “no binding”. For the molecule B12, the binding result is “no binding”.
